Consider one molecule from patent US20210063414A1, “METHODS FOR PREVENTING AND/OR TREATING BONE LOSS CONDITIONS BY MODULATING IRISIN” (Dana-Farber Cancer Institute, Inc., priority 2018, published 2021).

Common to all, as to test: Crosslinking/co-immunoprecipitation/mass spectrometry (TMT quantitative proteomics) to identify irisin receptors
Common to all, as to format: binding

The target in assay [1] is T1, MLO-Y4 cell surface proteins (Mus musculus, UniProt P16675).
T1 construct: endogenous in cells; host or cells: MLO-Y4
T1 sequence (P16675 24-474): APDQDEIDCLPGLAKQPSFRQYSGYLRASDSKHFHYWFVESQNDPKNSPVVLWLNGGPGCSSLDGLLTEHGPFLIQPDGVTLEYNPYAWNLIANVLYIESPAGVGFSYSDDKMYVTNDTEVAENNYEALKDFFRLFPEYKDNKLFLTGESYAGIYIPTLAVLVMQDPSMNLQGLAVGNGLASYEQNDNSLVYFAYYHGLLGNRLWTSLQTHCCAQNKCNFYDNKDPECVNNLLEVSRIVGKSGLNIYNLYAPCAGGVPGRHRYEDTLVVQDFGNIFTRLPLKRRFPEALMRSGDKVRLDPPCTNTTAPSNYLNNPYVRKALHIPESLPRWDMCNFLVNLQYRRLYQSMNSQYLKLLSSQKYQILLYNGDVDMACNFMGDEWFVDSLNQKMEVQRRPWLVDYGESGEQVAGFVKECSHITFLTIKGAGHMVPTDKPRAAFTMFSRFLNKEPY
The conditions noted are these: co-precipitated protein Ctsa (PPGB_MOUSE). In a few lines:
(§1)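 Mouse MLO-Y4 cells were switched to serum-free FreeStyle medium for 4 h, chilled, then exposed to 10 nM His-tagged irisin (or adipsin as control) for 20 min. Cells were crosslinked with 1.5 mM DTSSP (30 min, ice), and bound proteins were pulled down on Ni-NTA and eluted with 250 mM imidazole. Eluates were separated by SDS-PAGE, trypsin-digested in gel, TMT 6-plex labelled and quantified by MS3-based LC-MS/MS on an Orbitrap Fusion Lumos.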

Assay [2] has as its target T2, MLO-Y4 cell surface proteins (Mus musculus, UniProt P08249).
T2 construct: endogenous in cells; host or cells: MLO-Y4
T2 sequence (P08249 25-338): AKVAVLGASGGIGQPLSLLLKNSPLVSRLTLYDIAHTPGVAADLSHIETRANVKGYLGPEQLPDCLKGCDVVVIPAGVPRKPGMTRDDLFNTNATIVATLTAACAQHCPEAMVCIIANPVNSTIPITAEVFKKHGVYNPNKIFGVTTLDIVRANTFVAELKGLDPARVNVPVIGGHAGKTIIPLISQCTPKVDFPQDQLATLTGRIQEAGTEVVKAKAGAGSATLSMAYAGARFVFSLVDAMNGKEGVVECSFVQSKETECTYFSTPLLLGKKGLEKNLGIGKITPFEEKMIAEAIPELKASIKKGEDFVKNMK
The conditions noted are these: co-precipitated protein Mdh2 (MDHM_MOUSE). An outline of the steps:
as §1

The target of assay [3] is T3, MLO-Y4 cell surface proteins (Mus musculus, UniProt P59999).
T3 construct: endogenous in cells; host or cells: MLO-Y4
The conditions noted are these: co-precipitated protein Atpc4 (ARPC4_MOUSE). In a few lines: as §1

In assay [4] the target is T4, MLO-Y4 cell surface proteins (Mus musculus, UniProt P09671).
T4 construct: endogenous in cells; host or cells: MLO-Y4
T4 sequence (P09671 25-222): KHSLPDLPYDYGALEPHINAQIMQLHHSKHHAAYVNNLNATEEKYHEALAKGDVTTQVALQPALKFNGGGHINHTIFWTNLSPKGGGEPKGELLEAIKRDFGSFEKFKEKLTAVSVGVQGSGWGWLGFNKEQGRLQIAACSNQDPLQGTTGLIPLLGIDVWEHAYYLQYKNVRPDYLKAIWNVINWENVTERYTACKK
The conditions noted are these: co-precipitated protein Sod2 (SODM_MOUSE). An outline of the steps: as §1

B1: irisin: secreted cleaved form of FNDC5; recombinant human/mouse irisin with C-terminal his tag produced in HEK293 cells (protein)
chain: DSPSAPVNVTVRHLKANSAVVSWDVLEDEVVIGFAISQQKKDVRMLRFIQEVNTTTRSCALWDLEEDTEYIVHVQAISIQGQSPASEPVLFKTPREAEKMASKNKDEVTMKE
modifications: left off: small tags and cut ends
notes: secreted cleaved form of FNDC5; recombinant human/mouse irisin with C-terminal his tag produced in HEK293 cells
In the case of B1, the TMT signal-to-noise ratio turned out to be 111.377 in assay [1], 858.89 in assay [2], 74.075 in assay [3] and 472.133 in assay [4]. Besides, the “irisin/adipsin TMT signal-to-noise ratio” value in assay [1] was determined as 0.311; in assay [2] it was 0.336; in assay [3], 0.536; in assay [4], 0.458.
